Publication PMC5780489

Assays:
[1] = target: poly(A)-binding protein C1 (PABPC1), full length human (human) (UniProt P11940)
[2] = target: PABPC1ΔLt2 (residues 1-420, 471-636) (human) (UniProt P11940)

Chain of poly(A)-binding protein C1 (PABPC1), full length human (P11940 whole entry): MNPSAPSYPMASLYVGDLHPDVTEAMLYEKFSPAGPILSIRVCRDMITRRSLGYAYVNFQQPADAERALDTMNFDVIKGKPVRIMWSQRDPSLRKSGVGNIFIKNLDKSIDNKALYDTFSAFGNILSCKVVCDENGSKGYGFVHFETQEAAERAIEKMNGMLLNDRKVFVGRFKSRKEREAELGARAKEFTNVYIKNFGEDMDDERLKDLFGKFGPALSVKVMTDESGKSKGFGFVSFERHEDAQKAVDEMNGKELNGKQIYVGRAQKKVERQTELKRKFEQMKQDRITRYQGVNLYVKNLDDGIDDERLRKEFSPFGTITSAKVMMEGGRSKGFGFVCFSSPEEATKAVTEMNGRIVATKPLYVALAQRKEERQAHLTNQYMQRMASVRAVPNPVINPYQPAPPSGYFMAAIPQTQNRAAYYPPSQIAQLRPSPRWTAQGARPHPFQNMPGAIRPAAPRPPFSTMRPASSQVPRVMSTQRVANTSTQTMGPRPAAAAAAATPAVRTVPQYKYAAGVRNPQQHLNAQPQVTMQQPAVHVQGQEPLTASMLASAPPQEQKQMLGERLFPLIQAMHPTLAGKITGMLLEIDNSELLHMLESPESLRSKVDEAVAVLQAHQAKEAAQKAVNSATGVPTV

translation of capped luciferase mRNA with poly(A) in PABPC1-depleted rabbit reticulocyte lysate after adding 10 nM purified protein; fold enhancement over depleted lysate [1] [fold] | translation of capped luciferase mRNA with poly(A) in PABPC1-depleted rabbit reticulocyte lysate after adding 10 nM purified protein; fold enhancement over depleted lysate [2] [fold] | Substance
2.5 | – | poly(A)-binding protein C1 (PABPC1), full length human (from UniProt P11940 1-636) (natural protein)
– | 1.7 | PABPC1ΔLt2 (residues 1-420, 471-636) (from UniProt P11940 1-636) (natural protein)
